Legend:
[1] = biological target: DRB1*03:01 HLA Class II antigen loaded in vitro with biotinylated CLIP peptide (human); assay: Luminex bead assay, Streptavidin-PE detection of biotinylated CLIP loaded on the antigen
[2] = biological target: DRB5*01:01 HLA Class II antigen (K cell line host) loaded in vitro with biotinylated CLIP peptide (human); assay: as above
[3] = biological target: DRB5*01:01 HLA Class II antigen expressed in a K cell line host (K562), lacking a CLIP peptide in the peptide binding groove (human); assay: Luminex bead assay, Streptavidin-PE detection of biotinylated CLIP; no-peptide control beads

Chain of DRB1*03:01 HLA Class II antigen loaded in vitro with biotinylated CLIP peptide (human) (P04233 97-121 limits assumed, chain 3 of 3, other chains not shown): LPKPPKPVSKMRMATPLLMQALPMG

MFI [1]: 2810 MFI | MFI [2]: 4600 MFI | MFI [3]: 840 MFI
Substance: Anti-biotinylated CLIP (Streptavidin-PE, to detect the presence of the biotinylated CLIP) (from UniProt P22629 37-163)

— patent US20200072831A1
